Assay results from publication PMC10866546, “Pseudomonas effector AvrB is a glycosyltransferase that rhamnosylates plant guardee protein RIN4” (Science Advances, 2024).
Changes are numbered by the printed parent chain.

B1: GST-RIN4 T166A (natural protein)
chain: MARSNVPKFGNWEAEENVPYTAYFDKARKTRAPGSKIMNPNDPEYNSDSQSQAPPHPPSSRTKPEQVDTVRRSREHMRSREESELKQFGDAGGSSNEAANKRQGRASQNNSYDNKSPLHKNSYDGTGKSRPKPTNLRADESPEKVTVVPKFGDWDENNPSSADGYAHIFNKVREERSSGANVSGSSRTPTHQSSRNPNNTSSCCCFGFGGK
notes: source: E. coli BL21 (DE3), purified (Ni2+-NTA)
B2: GST-RIN4 T166E (natural protein)
chain: B1 chain with A166E
notes: as for B1

Target: T1, AvrB (WT), C-terminal 6xHis tag (P. syringae, UniProt P13835 1-321)
T1 construct: AvrB, type III secretion system effector of Pseudomonas syringae; cDNA in pET-29b; source: E. coli BL21 (DE3), purified (Ni2+-NTA)
Test: pull-down; GST-tagged bait (10 μg) and prey (10 μg) with 10 μl glutathione agarose resin in 500 μl of 25 mM Hepes pH 7.4, 150 mM NaCl, 1 mM DTT, 0.1% Triton X-100, 5 mg BSA for blocking; 4°C, 30 min; three washes; SDS-PAGE, Coomassie staining
Conditions: both partners purified

Binder	binding result
B1	binds
B2	binds
